Patent publication US20150306254A1 (REGENTS OF THE UNIVERSITY OF COLORADO A BODY CORPORATE, published 2015)

Tests used:
recombinant human C3d = target: T1, recombinant human C3d (human, UniProt P01024 996-1303, limits assumed); test: SPR, recombinant human C3d fixed to a CM5 chip
T1 construct: domain: C3d; also called wild-type C3d; the C3d immunogen
Description: FIGS. 12A-12C. […] Surface plasmon resonance was performed using recombinant human C3d fixed to a CM5 chip.
The affinity of clones 3d8b, 3d9, and 3d29 for C3d were tested by surface plasmon resonance (FIG. 12).

[1] = target: T2, C3d, source and species not stated; test: radiolabeled antibody; method and antigen not stated
T2 construct: domain: C3d; also called 3d antigen; target C3d antigen
T2 sequence (P01024 1002-1303): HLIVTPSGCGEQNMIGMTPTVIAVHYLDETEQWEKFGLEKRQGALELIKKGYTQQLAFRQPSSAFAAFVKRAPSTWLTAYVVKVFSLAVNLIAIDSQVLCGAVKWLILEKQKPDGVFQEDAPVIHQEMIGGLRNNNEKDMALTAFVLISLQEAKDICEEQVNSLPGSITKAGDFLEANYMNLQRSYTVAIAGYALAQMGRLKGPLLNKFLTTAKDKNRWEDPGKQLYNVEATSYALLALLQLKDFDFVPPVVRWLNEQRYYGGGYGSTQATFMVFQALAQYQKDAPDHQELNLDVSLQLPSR

recombinant murine C3d = target: T3, recombinant murine C3d (murine, UniProt P01027 996-1303, limits assumed); test: direct ELISA
T3 construct: domain: C3d; also called mouse C3d
T3 sequence (P01027 996-1303 limits assumed): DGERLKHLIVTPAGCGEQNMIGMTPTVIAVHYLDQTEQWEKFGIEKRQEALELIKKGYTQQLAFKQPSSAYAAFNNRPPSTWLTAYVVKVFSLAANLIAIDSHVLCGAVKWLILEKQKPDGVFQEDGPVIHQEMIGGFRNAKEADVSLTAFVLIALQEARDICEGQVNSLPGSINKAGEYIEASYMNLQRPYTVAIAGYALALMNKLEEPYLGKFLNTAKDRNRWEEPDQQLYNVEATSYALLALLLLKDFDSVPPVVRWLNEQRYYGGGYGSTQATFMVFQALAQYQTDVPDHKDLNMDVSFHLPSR
Description: To confirm that the antibodies reacted with C3d and not with a contaminant in the immunogen, the antibodies were tested against the C3d using a sandwich ELISA in which the recombinant C3d was captured with a polyclonal anti-C3d capture antibody (Table 2). To test reactivity of the clones against murine C3d we performed indirect and sandwich ELISAs using recombinant murine C3d. We also performed direct ELISAs to test binding of the antibodies to recombinant human C3d from a second construct, purified human C3d, and to recombinant cynomologous C3d.
To assess reactivity of antibodies against C3d, ELISAs were performed using purified forms of C3 activation fragments from several different sources (see Reagents section above). Direct ELISAs were performed by affixing 30-50 ng of the C3 fragment to the ELISA plate overnight at 4° C. The plates were blocked with 1% bovine serum albumin in PBS for 2 hours at room temperature. Bound antibodies were then detected with HRP-conjugated anti-mouse IgG (MP Biomedicals, Solon, Ohio). Sandwich ELISAs were performed by incubating polyclonal anti-human C3d antibody (Dako USA, Carpinteria, Calif.) to the ELISA plates in order to capture the C3d. Binding of the antibodies to the captured C3d was then detected as above.

T1 sequence (P01024 996-1303 limits assumed): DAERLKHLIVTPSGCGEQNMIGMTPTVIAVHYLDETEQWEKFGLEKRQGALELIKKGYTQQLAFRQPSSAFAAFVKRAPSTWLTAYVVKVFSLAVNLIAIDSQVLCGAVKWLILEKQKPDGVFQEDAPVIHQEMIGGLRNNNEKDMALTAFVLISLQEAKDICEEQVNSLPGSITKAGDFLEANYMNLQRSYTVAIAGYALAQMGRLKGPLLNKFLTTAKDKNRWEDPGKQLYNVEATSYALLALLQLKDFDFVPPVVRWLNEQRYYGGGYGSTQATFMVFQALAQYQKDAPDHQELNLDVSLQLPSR

B1: mouse monoclonal antibody 3d29 (antibody, mouse IgG2a, V domains shown)
VH: EVQLQQSGPVLVKPGASVKMSCKASGYTFTDYYMNWVKQSHGKSLEWIGVINPYNGGTSYNQKFKGKATLTVDKSSRTAYMELNSLTSEDSAVYYCSRGGPYWGQGTTLTVSS
VL: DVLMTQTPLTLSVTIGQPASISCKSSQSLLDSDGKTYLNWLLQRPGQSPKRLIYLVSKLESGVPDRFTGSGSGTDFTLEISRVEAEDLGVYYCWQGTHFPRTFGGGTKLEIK
notes: Mouse IgG2a/c (Group I clone); Also used FITC-labelled, biotinylated, radiolabeled and conjugated to SPIO nanoparticles; also called C3d29; 3d29a
Question: Which results are given for B1?
Answer: Kd (recombinant human C3d): 1.06 nM; Kd [1]: 0.43 nM; binding result (recombinant murine C3d): binds
